These results are taken from the supplement of paper PMC12042874.

± gives the uncertainty stated by the source.

The data set is described as follows: amyloid nucleation score (Sup35N fusion, yeast selection) (log enrichment); library NNK1; higher = more nucleation; inactive = no reads after selection. In outline: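 Random libraries were run with three technical output replicates. In each, psi-negative yeast expressing Sup35N fused to peptides of 20 random codons were induced 24 hours with 100 μM copper sulfate and grown 7 days at 30°C on medium lacking adenine and uracil, and input and output plasmid inserts were Illumina-sequenced. The nucleation score is the DiMSum log enrichment of output over input reads, centred on the mode score of non-aggregating sequences, and sequences under 100 input reads were excluded.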
IPPCWLTGLFNQYMNWTRS returned an amyloid nucleation score of -0.134 ± 0.31.

As to IQFPRLGGDTTVCDYGHVAI, the amyloid nucleation score was determined as 1.32 ± 0.49.

The substance IQPLIWANYFVIGARV yielded an amyloid nucleation score of 3.66 ± 0.1.

For IQSFAMLMQVCLIAHLYRRL, the amyloid nucleation score worked out at 0.108 ± 1.

In turn, IRFKRFGADAHGNKYNSRWI registered an amyloid nucleation score of 1.13 ± 0.32.

On to IRHIRPFFNVKDI, for which the amyloid nucleation score is -0.006 ± 0.37.

IRIFNKHGHGG returned an amyloid nucleation score of -0.664 ± 0.36.

With IRKRDFGYKSLFPNGTAMIH, the amyloid nucleation score was -0.83 ± 0.88.

IRLRPERDLGVAWLCIGCKR: the amyloid nucleation score was -0.314 ± 1.2.

As for IRMVL, the amyloid nucleation score worked out at 0.697 ± 0.44.

In turn, IRRAENLFIRYSHR gave an amyloid nucleation score of 0.855 ± 0.58.

As for IRRSHSEVPVVA, the amyloid nucleation score turned out to be 0.22 ± 0.37.

IRRSIGVRAPWTFSEEDGSS displayed an amyloid nucleation score of 0.6 ± 0.79.

For IRRYLSCPYNISIVYSENIV, the amyloid nucleation score was -0.185 ± 0.71.

Consider IRTKILLLHKNQKTVVKGLG, for which the amyloid nucleation score was determined as 0.073 ± 1.5.

In turn, ISAMSVW yielded an amyloid nucleation score of -0.031 ± 0.74.

Take ISATCL: the amyloid nucleation score came out at 0.858 ± 0.76.

Consider ISCRFAMVLGLKSWILTYV, for which the amyloid nucleation score result was “inactive”.

Take ISFSSYYNLVLDYLELSQCL: the amyloid nucleation score entry was “inactive”.

Consider ISGMRGFILLGRRVFTKVSS, for which the amyloid nucleation score is -0.277 ± 0.33.

For ISHNQIWVRIGISRLFQHKV, the amyloid nucleation score stood at 2 ± 0.35.

As for ISKSFWTRGECCRK, the amyloid nucleation score was found to be 0.368 ± 0.39.

Substance ISMTDYVPSMHYAQTRVHLN yielded an amyloid nucleation score of -0.085 ± 0.78.

ISPLSQYARLVRQVSRAWYD: the amyloid nucleation score was determined as 0.569 ± 0.87.

ISVCFWSIKYRSWAILMPKG gave an amyloid nucleation score of 0.077 ± 0.58.

Take ISYRGSFHTNMWTCILRTAK: the amyloid nucleation score worked out at 0.082 ± 0.42.

Substance ITCSHPQRMLVCSCKSPWCF gave an amyloid nucleation score of 3.31 ± 0.13.

ITFIVAGI came in with an amyloid nucleation score of -0.113 ± 0.21.

ITLIGQHRFLLVFSTNQLNH had an amyloid nucleation score of 0.46 ± 0.3.

ITNFMGGIRVYRCDASMKGG had an amyloid nucleation score of 0.395 ± 0.28.

For ITVSKKATWCRQRGMRGLRG, the amyloid nucleation score amounted to 1.65 ± 0.59.

Substance ITYINLSSSYKIPRPTHMRI yielded an amyloid nucleation score of 6.07 ± 0.065.

The substance ITYIRHYCKPVVL displayed an amyloid nucleation score of 5.65 ± 0.11.

For the substance IVASSISAQVSLLYRALCIY, the amyloid nucleation score stood at 3.69 ± 0.16.

Regarding IVASYRYNYMYDLHLLSALQ, the amyloid nucleation score result is “inactive”.

The substance IVDSVRGKGVY came in with an amyloid nucleation score of 1.14 ± 0.79.

In the case of IVGIVT, the amyloid nucleation score came to 1.04 ± 0.35.

For the substance IVGST, the amyloid nucleation score is -0.894 ± 0.47.

With IVGVEGLKPIKAPLLLNRSV, the amyloid nucleation score entry is “inactive”.

IVLKVIINVCHYLTGGSTFA: the amyloid nucleation score worked out at 6.475 ± 0.062.

On to IVQTHYN, for which the amyloid nucleation score was -0.817 ± 1.7.

Take IVRVEWFSHYSFVFNGIDGG: the amyloid nucleation score came out at 0.679 ± 0.54.

Take IVVNIYVRWYPVGTGWDYLT: the amyloid nucleation score entry was “inactive”.

In turn, IVVSQPVFEGYIWLLNVAGG gave an amyloid nucleation score of 4.42 ± 0.094.

In the case of IVWFCINDTASVVLKTLLSH, the amyloid nucleation score was 1.36 ± 0.78.

Turning to IVWYELIESNVLKSKGCVVN, the amyloid nucleation score is -0.322 ± 1.1.

IVYLSCFVRCP gave an amyloid nucleation score of 0.379 ± 0.56.

IWCSVNEWQYRVKVV came in with an amyloid nucleation score of 0.03 ± 0.5.

IWDSVLF had an amyloid nucleation score of 1.57 ± 0.33.

The substance IWGKC yielded an amyloid nucleation score of -0.644 ± 0.76.

For the substance IWLSFKDLCKVRICSS, the amyloid nucleation score was found to be 0.803 ± 0.59.

For the substance IWMIAQDGFNFQLSNR, the amyloid nucleation score was 0.282 ± 0.31.

In the case of IWSSVQEFLGCMFWVIRINH, the amyloid nucleation score is 1.77 ± 0.45.

Turning to IWVHHRSVTKSWLKMVAWNH, the amyloid nucleation score is -0.514 ± 0.43.

Substance IYCSCPSKQE yielded an amyloid nucleation score of -0.075 ± 0.24.

Turning to IYIGLLYVLCIGLASMCLTS, the amyloid nucleation score is 0.199 ± 0.84.

On to IYPRMCLRGFAACV, for which the amyloid nucleation score came out at 2.91 ± 0.13.

IYRDGIGTDIWFRGSICKCL yielded an amyloid nucleation score of 0.704 ± 0.61.

As to IYRFGFRACVDPGLRIV, the amyloid nucleation score result is “inactive”.

IYVLYQIERSVK registered an amyloid nucleation score of -0.154 ± 0.58.

On to IYWSP, for which the amyloid nucleation score came out at 0.569 ± 0.26.

In the case of IYYTSWYINAYLCGHMPVRG, the amyloid nucleation score was 2.52 ± 0.23.

For KACFPLI, the amyloid nucleation score is 0.631 ± 0.45.

Substance KADIFYSLCFLRVEG had an amyloid nucleation score of -0.338 ± 0.79.

In the case of KADQCLSWDS, the amyloid nucleation score was -0.717 ± 0.97.

In the case of KAPCDFSGFCRCRVTGPSHC, the amyloid nucleation score turned out to be 0.412 ± 0.33.

KCDRHLKSYWSKELHYYYNF: the amyloid nucleation score is -0.894 ± 0.38.

Substance KCGRVWHVFFVVSYQGVGST registered an amyloid nucleation score of 1.31 ± 0.46.

Regarding KCLSLNCMPYTFLLSRYYPY, the amyloid nucleation score entry is “inactive”.

With KCLTLSCILDVCKNIVEEMI, the amyloid nucleation score was 0.047 ± 0.46.

Take KCMEIILVLRVVRKWGSGGM: the amyloid nucleation score was 0.654 ± 0.97.

KCSVCF yielded an amyloid nucleation score of 2.24 ± 0.35.

On to KDHTWWALCFYIKIFELKVR, for which the amyloid nucleation score is 1.39 ± 0.73.

Take KDRFMSIYLVSYWSGLCTGL: the amyloid nucleation score entry is “inactive”.

The substance KDRMITPKPTVVTHLVVSYG returned an amyloid nucleation score of -0.23 ± 0.22.

As for KDSFLMGGLFFMTAAWVSPR, the amyloid nucleation score is 1.54 ± 0.27.

In turn, KDTQCHIARATRRGVRGNVF displayed an amyloid nucleation score of -0.48 ± 1.1.

In the case of KELCGLRGYTFYEQF, the amyloid nucleation score is 0.588 ± 0.74.

KENQSIRFWVD: the amyloid nucleation score entry was “inactive”.

In turn, KFACLRWVICKYCLWV had an amyloid nucleation score of -0.412 ± 0.49.

KFFHLAIMWFTPSSPHKGTC: the amyloid nucleation score is -0.496 ± 0.62.

Substance KFIDFERLFSLRGWSVCNER had an amyloid nucleation score of 0.889 ± 0.24.

Consider KFRDPYCKHRWAGLGKQSGD, for which the amyloid nucleation score is 0.052 ± 0.4.

For the substance KFRSKLWNYFFACVEPATHP, the amyloid nucleation score was -0.013 ± 0.72.

In the case of KFVTVKTRQLKSAGASIVSG, the amyloid nucleation score is -0.119 ± 0.69.

KFVVMGWGYLTIRVVSVTDK came in with an amyloid nucleation score of 1.92 ± 0.64.

With KGFFNAITGDKIPRPSRDRR, the amyloid nucleation score was 0.174 ± 0.48.

The substance KGGSPQYNGVTSMWWDRKFD gave an amyloid nucleation score of -0.255 ± 0.38.

On to KGHSANVYTAPLLCNNCHFF, for which the amyloid nucleation score stood at 6.703 ± 0.059.

As to KGMYISWIVAVCS, the amyloid nucleation score was 0.411 ± 0.3.

Take KGSSAMPL: the amyloid nucleation score entry was “inactive”.

Consider KGWWKGLRARSQGPGVSDVW, for which the amyloid nucleation score is -0.314 ± 0.57.

As to KGYYDFRGVSLMVPVMFTMS, the amyloid nucleation score turned out to be 0.048 ± 0.38.

As for KHQGNMTTINNKRAARLLGP, the amyloid nucleation score entry was “inactive”.

KHVGWSYG: the amyloid nucleation score amounted to 0.779 ± 0.48.

KICTYSRFC: the amyloid nucleation score was 0.848 ± 0.39.

Take KILCWNIFLPYKGVRGRFGM: the amyloid nucleation score came to 6.895 ± 0.053.

In the case of KIRLQVNSFMFVTPWAHFMV, the amyloid nucleation score was determined as 4.55 ± 0.052.

Regarding KIRRGCMLLGQHVWTT, the amyloid nucleation score is 0.207 ± 0.35.

In turn, KIRSPYNMMPMLTLGTSKGV showed an amyloid nucleation score of 0.845 ± 0.61.

In the case of KKRPRYRRWTS, the amyloid nucleation score came out at 0.578 ± 0.52.

KLCQVRHVSWIMSCQRYKQD yielded an amyloid nucleation score of 0.058 ± 0.49.

The substance KLCRFCNRVCYCQ gave an amyloid nucleation score of -0.691 ± 1.
